According to US20260092121A1 (TALEM THERAPEUTICS, published 2026):

Legend:
[1] = target: T1, mouse TrkB-ECD-GST (mouse, UniProt P15209 32-429); experiment: ELISA
T1 construct: extracellular domain; in-house fusion, HEK293; also called mTrkB-ECD-GST; mTrkB (ELISA); not shown: glutathione S-transferase (GST) fusion part

[2] = target: T2, human TrkB-ECD-GST (human, UniProt Q16620 32-430); experiment: ELISA
T2 construct: in-house fusion, HEK293; also called hTrkB-ECD-GST; human TrkB-GST; not shown: glutathione S-transferase (GST) fusion part

binding result [1] | binding result [2] | Binder
no binding (tested: up to 10 µg/mL) | no binding (tested: up to 10 µg/mL) | anti-TrkB clone 2E08 (antibody, V domains shown, full-length IgG) VH: QVQLVQSGAEVKKPGESLKISCTGSGYRFSHYWIGWVRQMPGKGLEWMGMIYPDDSDTRYSPSFQGQVTISADKSINTAYLQWTSLRASDSAIYYCATGVISGTDYWGQGTLVTVSS VL: SYVLTQPPSVSVSPGQTARITCSGDKLGDKYVSWYQLKPGQSPVVVIYQDNKRPSGIPERFSASNSENTGTLTISGTQAMDEADYYCQTWDSGTGVFGTGTKLTVL
no binding (tested: up to 10 µg/mL) | no binding (tested: up to 10 µg/mL) | anti-TrkB clone 2H05 (antibody, V domains shown, full-length IgG) VH: EVQLVESGAEVKKPGESLRISCKGSGYSFTNNWINWVRQMPGKGLEWMGRIDPDDSYTNYSPSFQGHVIFSADKSSNTVYLQWSSLEASDTAMYYCARRAQGGGGYDYWGQGTLVTVSS VL: QSVLTQPSSVSGAPGQRVTISCTGSSSNIGAGYGVHWYQQLPGTAPKLLIYDDINRPSGVPDRFSGSKSGTSASLAITGLRAEDEADYYCQSYDTSRGGLYVFGSGTKLTVL
no binding (tested: up to 10 µg/mL) | no binding (tested: up to 10 µg/mL) | anti-TrkB clone 3D06 (antibody, V domains shown, full-length IgG) VH: EVQLVQSGAEVKKPGESLKISCQGSGYTFTNYWIAWVRQMPGKGLEWMGIIYPGDSDTRYSPSFQGQVTISADKSISTAYLQWSSLKASDTAMYYCAIGYDYGAFDIWGQGTMVTVSS VL: QPVLTQPPSASGTPGQRVSISCSGSNSNIGSNSVYWYQQLPGTAPKLLIYRNNQRPSGVPDRFSGSKSGTSASLAISGLRSEDEADYYCAAWDDSLSGYVFGTGTQLTVL
no binding (tested: up to 10 µg/mL) | no binding (tested: up to 10 µg/mL) | anti-TrkB clone 3B06 (antibody, V domains shown, full-length IgG) VH: EVQLVQSGAEVKEPGASVKVSCKASGYTFTNYAMHWVRQAPGQRLEWMGWINPNTGGTNYAQKFQGRVTMTRDTSISTAYMELSSLRSDDTAVYYCARGGGGLVFWGQGTLVTVSS VL: DIVMTQTPLSLPVTLGQPASISCRSSQSLVDRDGNTYLNWFRQRPGQSPRRLIYKVSNRDSGVPGTFSGSGSGTDFTLKISRVEADDVGVYFCMQATHWPPTFGQGTKVEI
no binding (tested: up to 10 µg/mL) | no binding (tested: up to 10 µg/mL) | anti-TrkB clone 3D03 (antibody, V domains shown, full-length IgG) VH: EVQLVQSGAEVKKPGESLKISCKGSGYSFTSYWIGWVRQMPGKGLEWMGIIYPGDSDTRYSPSFQGQVTISADKSISTAYLQWSSLKASDTAMYYCARLGGSLPIDYWGQGTLVTVSS VL: QSVLTQPPSVSVSPGQTASITCSGDKLGDKYVSWYQQKPGQSPVLVIYQDSKRPSGIPERFSGSNSGSTATLTISGTQALDEADYYCQAWDNNIGVFGGGTKLTVL
no binding (tested: up to 10 µg/mL) | no binding (tested: up to 10 µg/mL) | anti-TrkB clone 4D01 (antibody, V domains shown, full-length IgG) VH: EVQLVQSGAEVKKPGESLKISCKGSRYSFTSYWIGWVRQMPGKGLEWMGIIYPGDSDTRYSPSFQGQVTISADKSISTAYLQWSSLKASDTAMYYCARLKDGAFDIWGQGTMVTVSS VL: QAVLTQPPSASGTPGQRVTISCSGSSSNIEGNYVHWYQQLPGAAPKVLIYRNNQRPSGVPDRFSGSKSGTSASLAISGLRSEDETDYFCAAWDDSLNGYVFGAGTKVTVL
